The values below come from paper PMC6733935, “A convenient and efficient total solid-phase synthesis of DOTA-functionalized tumor-targeting peptides for PET imaging of cancer” (EJNMMI Research, 2019).

The structures appear in SMILES notation. Numbered stars: 1 amine (or outer) side, 2 acyl side, 3 side chain; on linkers, the order of the positions; unused ones are H or OH. Square brackets hold non-standard residues; d marks the D form. Peptide text beside a SMILES is read from it. * marks the point of attachment. DOTA = O=C(O)CN1CCN(CC(=O)O)CCN(CC(=O)*)CCN(CC(=O)O)CC1; Cha = N[C@@H](CC1CCCCC1)C(=O)O; X1 = O=C(CCC(=O)[*:2])CN[*:1]; Nle = CCCC[C@H](N)C(=O)O

Data set [1] is classed as physicochemical. How it is done:
For lipophilicity determination, each HPLC-purified radiopeptide (~ 20 μL, ∼ 25 μCi) was added into a glass tube containing an equal volume mixture of n-octanol and water (1 mL each). The samples were vigorously vortexed for 5 min and subsequently centrifuged (5000 rpm, 5 min) to yield two immiscible layers. Duplicate samples (100 μL) from each layer were carefully taken (to avoid cross-contamination between the layers) for radioactivity measurement using a γ-counter. Partition coefficient was determined by the function: partition coefficient = Log10 (radioactivity in octanol layer/radioactivity in aqueous layer).

The nature of data set [2]: Radio-HPLC retention time as reflection of lipophilicity. The class given is physicochemical. The conditions noted are these: chromatographic, econosphere C18 (10 μm, 250 × 4.6 mm), 0.1% TFA water/acetonitrile, 5 to 95% B over 30 min, 1.1 mL/min; radio detection; used as reflection of lipophilicity. How it is done:
The HPLC analysis and purification of the peptides were performed on a Shimadzu HPLC system using econosphere C18 reversed-phase column (10 μm, 250 × 4.6 mm). For all HPLC experiments, a gradient system of 0.1% (v/v) TFA in water (solvent A) and 0.1% (v/v) TFA in acetonitrile (solvent B) at a flow rate of 1.1 mL/min was used. The HPLC gradient began with a solvent composition of 95% A and 5% B from 0 to 2.5 min followed by a linear gradient of 95% A and 5% B to 5% A and 95% B over 30 min. The gradient remained at this position for 3 min before switching back to 95% A and 5% B for another 7 min. The major peak isolated and the acetonitrile was then slowly evaporated under a stream of nitrogen gas. Radiochemical purity was estimated by evaluating radioactivity peaks eluted for each ^68Ga-labeled peptide from the HPLC column and calculating the area under the peak (ROI). The main peak of each radiopeptide was isolated and reconstituted in sterile saline for in vitro and in vivo experiments. Radiolabeling of DOTA-coupled BN peptides with ^68Ga was accomplished simply by mixing ~ 20 μg BN peptide with sodium acetate buffer and ^68GaCl3 followed by heating to complete the labeling reaction. By this facile method, a high and reproducible radiolabeling of peptides with ^68Ga was achieved (up to 95%), with a specific radioactivity of greater than 250 Ci/mmol. […] A radiolabeling efficiency of greater than 90% was obtained in all cases, and it ranged between 90 and 95%. […] RP-HPLC retention times of the major peaks, ranging from 18.3 to 20.3 min, reflected slightly variable lipophilicity of these ^68Ga-complexes (Table 1).

Data set [3] addresses T1, BN/GRP receptor-positive MDA-MB-231 human breast cancer cells (Homo sapiens, UniProt P30550).
T1 construct: BN/GRP receptor-positive MDA-MB-231, MCF7, T47D human breast cancer, and PC3 human prostate cancer lines; host or cells: MDA-MB-231, MCF7, T47D (human breast cancer), PC3 (human prostate cancer); intact cells
The data set is described as follows: Saturation binding assay on MDA-MB-231 cells. The note with it: n = 3-5 experiments. The protocol:
(§1) The cell binding of ^68Ga-radiolabeled peptides into BN/GRP receptor-positive MDA-MB-231, MCF7, T47D human breast cancer, and PC3 human prostate cancer lines (American Type Culture Collection, Rockville, MD, USA) was performed according to the method described previously. In brief, ∼ 300,000 cells (in 300 μL in low-serum media) were incubated with various amounts of radiopeptides, ranging between 0.1 and 25 nM of peptide (prepared from the serial dilutions of HPLC-purified radiopeptides), in duplicate for 60 min at room temperature. The initial concentrations of ^68Ga-labeled peptides were determined according to a well-established HPLC technique with simultaneous detection by UV absorbance. As the amount of BN peptide in the reaction mixture was too small to be detected by UV absorption at 220 nm, the radioactive peptide chromatograms from the HPLC analysis were compared (with UV chromatograms) with those of known concentrations of the corresponding nonradioactive peptides for the mass determination. Incubation was terminated by dilution with cold saline (300 μL) and the cells were pelleted by centrifugation. The cell pellets was then rapidly washed with cold saline to remove any unbound peptide and centrifuged to collect supernatants. Radioactivity in the cell pellet and the washings was measured in a γ-counter. Non-specific binding was determined in the presence of ~ 200-fold molar excess of unlabeled BN peptide. Specific binding is calculated by subtracting the non-specifically bound radioactivity from that of the total binding. The dissociation constant (Kd) was calculated using a plot of cell bound activity versus the concentration of the radioligand using GraphPad Prism software (GraphPad Software Inc., San Diego, CA, USA).

Data set [4] concerns the target T2, BN/GRP receptor-positive MCF7 human breast cancer cells (Homo sapiens, UniProt P30550).
T2 construct: BN/GRP receptor-positive MDA-MB-231, MCF7, T47D human breast cancer, and PC3 human prostate cancer lines; host or cells: MDA-MB-231, MCF7, T47D (human breast cancer), PC3 (human prostate cancer); intact cells
Description: Saturation binding assay on MCF7 cells. The note with it: n = 3-5 experiments. The protocol:
as §1

A further data set is described as follows: in vivo. The class given is in vivo, nude mice. The conditions noted are these: female, nude, mouse, in vivo, total radioactivity. In short, it runs like this:
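Female mice bore subcutaneous left-thigh xenografts of ~5 million MDA-MB-231 cells in PBS, grown 4-6 weeks to 200-300 mg. Animals received 20-30 μCi of 68Ga-labelled peptide and were sacrificed at set time points; tumour and organ uptake measured by γ-counting.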

[5] abbreviates: ~300,000 cells, 0.1-25 nM radiopeptide, 60 min, room temperature, mean ± SD.
Where [6] appears, read: Radioactivity in Urine + bladder.
Where [7] appears, read: Uptake in Intestines (measured without their contents).

For `CCCC[C@H](NC(=O)[C@H](Cc1c[nH]cn1)NC(=O)[C@H](CC1CCCCC1)NC(=O)[C@@H](NC(=O)[C@H](C)NC(=O)[C@H](Cc1c[nH]c2ccccc12)NC(=O)[C@H](CCC(N)=O)NC(=O)[C@H](CS)NC(=O)CNC(=O)CNC(=O)CCC(=O)CNC(=O)CN1CCN(CC(=O)O)CCN(CC(=O)O)CCN(CC(=O)O)CC1)C(C)C)C(=O)N[C@@H](CCSC)C(N)=O` [^68Ga-DOTA-ALA-BN Cyclen, metal not drawn] ({DOTA}-[X1]GGCQWAV[Cha]H[Nle]M-NH2), the “Log P (octanol/water)” value in data set [1] was “− 0.80 ± 0.05”. Further, the “Radio-HPLC tR” value in data set [2] is on record as 20.3 min. Also, the “Bmax (apparent number of binding sites per cell)” value in data set [3] (SD < 15%) is 1.02 × 10^5 sites/cell; in data set [4] (SD < 15%), 2.11 × 10^5 sites/cell. Moreover, the dissociation constant (Kd) was found to be 15.1 ± 3.12 nM in data set [3] (setting [5]) and 13.7 ± 2.32 nM in data set [4] (setting [5]). For the same compound, the dose excreted at 1 h in “in vivo” (setting [6]) came to 62 ± 6.28%. For the same compound, the dose excreted at 2 h in “in vivo” (setting [6]) turned out to be 71 ± 9.68%. For the same compound, the tissue uptake at 1 h in the data set “in vivo” (Uptake in Blood) was determined as 0.79 ± 0.13 %ID/g; in the data set “in vivo” (setting [7]) it was 0.9 ± 0.12 %ID/g; in the data set “in vivo” (Uptake in Kidneys) it was 5.94 ± 0.63 %ID/g; in the data set “in vivo” (Uptake in Liver), 1.4 ± 0.26 %ID/g; in the data set “in vivo” (Uptake in Muscle) it was 0.3 ± 0.06 %ID/g; in the data set “in vivo” (Uptake in Pancreas), 1.05 ± 0.12 %ID/g. The tissue uptake at 1 h in the data set “in vivo” (Uptake in Spleen) was determined as 0.26 ± 0.03 %ID/g; in the data set “in vivo” (Uptake in Stomach) it was 0.87 ± 0.19 %ID/g. The tissue uptake at 2 h in the data set “in vivo” (Uptake in Blood) came to 0.37 ± 0.1 %ID/g; in “in vivo” (setting [7]) it was 0.6 ± 0.1 %ID/g; in “in vivo” (Uptake in Kidneys) it was 3.2 ± 0.32 %ID/g; in “in vivo” (Uptake in Liver), 1.12 ± 0.19 %ID/g; in “in vivo” (Uptake in Lungs), 0.67 ± 0.13 %ID/g; in the data set “in vivo” (Uptake in Muscle), 0.21 ± 0.03 %ID/g. For the same compound, the tissue uptake at 2 h in the data set “in vivo” (Uptake in Pancreas) is 0.88 ± 0.11 %ID/g; in the data set “in vivo” (Uptake in Stomach), 0.46 ± 0.05 %ID/g.

What is called Kd is a measure of binding affinity in units of concentration. As a reminder, the tissue uptake is the percentage of the injected dose found per gram of tissue.
